What was measured:
human IL-1R = target: T1, human IL-1R (Homo sapiens, UniProt P14778); experiment: HEK-Blue IL1R cell-based IL-1R signaling reporter assay (SEAP, Quanti-Blue, absorbance 655 nm)
T1 construct: Human embryonic kidney (HEK) cells expressing murine and human IL-1 receptor proteins; host or cells: HEK-Blue IL1R (HEK293-derived reporter cells)
T1 sequence (P14778 18-569): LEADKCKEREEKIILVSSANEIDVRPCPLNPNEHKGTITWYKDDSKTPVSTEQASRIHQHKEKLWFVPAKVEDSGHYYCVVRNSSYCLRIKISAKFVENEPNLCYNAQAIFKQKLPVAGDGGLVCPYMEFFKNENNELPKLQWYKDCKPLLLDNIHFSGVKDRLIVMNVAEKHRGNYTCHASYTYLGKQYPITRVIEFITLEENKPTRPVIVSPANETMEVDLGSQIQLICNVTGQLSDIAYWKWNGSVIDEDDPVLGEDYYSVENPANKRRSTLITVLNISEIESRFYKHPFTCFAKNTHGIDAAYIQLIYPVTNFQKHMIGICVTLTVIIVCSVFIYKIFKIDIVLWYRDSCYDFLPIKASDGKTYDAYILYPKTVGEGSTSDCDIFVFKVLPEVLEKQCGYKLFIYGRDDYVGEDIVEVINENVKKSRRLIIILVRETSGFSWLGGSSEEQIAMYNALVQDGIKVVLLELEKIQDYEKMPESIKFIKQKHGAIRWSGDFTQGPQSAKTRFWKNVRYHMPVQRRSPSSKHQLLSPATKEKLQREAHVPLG
Procedure: HEK-Blue IL1R cells: Human embryonic kidney (HEK) cells expressing murine and human IL-1 receptor proteins, as well as expressing secreted embryonic alkaline phosphatase under NF-kB/AP1 transcriptional control (HEK-Blue IL1R, InvivoGen), were maintained in DMEM with 10% FBS, 2 mM glutamine, 50 U/mL penicillin, 50 μg/ml streptomycin, 100 μg/ml Normocin, 200 μg/mL hygromicin B, 1 μg/mL puromycin, and 100 μg/ml Zeocin. Heat inactivated human serum tested negative for background alkaline phosphatase activity. In initial experiments, HEK-Blue IL1R cells were treated for 24 hours with 0-100 ng/mL recombinant human IL-1β (Peprotech) in the presence of 0-200 ng/mL anakinra. In subsequent experiments, cells were treated with 32 pg/mL IL-1β for all conditions. After 3 hours, saturating concentrations (10 μg/mL) of anakinra were added to the cells to block further IL-1R signaling, and endpoint supernatants were collected at 24 hours. Supernatants (20-40 μL) were mixed with prewarmed QUANTI-Blue reagent (160 μL, InvivoGen) and incubated at 37° C. in a Spectramax M3 multi-mode microplate reader (Molecular Devices). Absorbance at 655 nm was recorded every 5 minutes for 3 hours via kinetic read. The basal absorbance of untreated HEK-Blue IL-1R cell supernatant was subtracted from all samples to normalize for non-specific signal.
Given that both IL-1β and IL-1RA were elevated in FIRES patient serum, experiments were conducted to determine whether the elevation translated into a change in overall IL-1R signaling activity. To develop a sensitive functional measurement of IL-1R signaling activity, a cell based assay using HEK-Blue IL1R cells was developed and optimized. These cells express human IL-1R and respond to IL-1R signaling-induced NFκB activity by producing secreted embryonic alkaline phosphatase (SEAP), which dose-dependently results in increased absorbance of 655 nm wavelength light upon incubation with Quanti-Blue substrate (FIG. 2A).
To investigate this possibility, the antagonistic activity of FIRES patient CSF-derived IL-1RA was assessed using an in vitro HEK-Blue IL1R cell-based assay. […] Thus, HEK-Blue IL1R cells were treated with 32 pg/mL IL-1β in the presence of either 50% dialyzed FIRES patient CSF containing 65 pM patient IL-1RA or 50% dialyzed CSF derived from NPH patients that was supplemented with recombinant IL-1RA prior to dialysis to reach concentrations of IL-1RA equimolar to that seen in FIRES patient CSF. The percent inhibition of IL-1R-induced SEAP was then compared in cells treated with 50% CSF containing 65 pM FIRES patient IL-1RA vs. 50% CSF containing 65 pM anakinra.

[1] = IL-1RA ELISA in FIRES patient serum and CSF before and after initiation of anakinra treatment; type: in vivo, human; conditions: detects the exogenous IL-1RA
Procedure: IL-1RA enzyme-linked immunosorbent assay: The human IL-1RA/IL1F3 Quantikine ELISA kit (R&D Systems) was used according to the manufacturer's instructions. Serum and CSF samples were diluted (1:2-1:5000 in assay diluent) and duplicate samples were measured against a standard curve (31.3-2000 pg/mL in duplicate). After chromogen development, absorbance was measured on a Spectramax M3 multi-mode microplate reader (Molecular Devices). Absorbances falling outside the range of the standard curve were reanalyzed at different dilutions.
To determine whether there was a diminished level of endogenous IL-1RA in FIRES patient serum or CSF, IL-1RA levels were measured by enzyme-linked immunosorbent assay (ELISA) in FIRES patient serum and CSF before and after initiation of anakinra treatment, as well as in serum from healthy controls, CSF from normal pressure hydrocephalus patients, and serum and CSF from patients with other seizure disorders. […] IL-1RA was strongly elevated in FIRES CSF compared to normal pressure hydrocephalus controls and patients with ESES or focal epilepsy (FIG. 1C). CSF IL-1β levels, which were only rarely detectable in healthy controls, were also elevated in among FIRES patients (FIG. 1D). […] This finding also was consistent with reports of elevated IL-1RA following seizure activity (Lehtimaki et al., Neuroimmunomodulation 17(1):19-22, 2010).

children with FIRES = conditions: Kenney-Jung et al. 2016; cited from earlier work

- suppression of the measured increase in IL-1R activity elicited by serum plus IL-1β (human IL-1R; 32 pg/mL IL-1β in the presence of 10% serum (HC, FE, FIRES, ESES), all conditions, FIG. 3E): at least partially suppressed
- IL-1R signaling in IL-1β treated HEK cells compared to unsupplemented NPH CSF (human IL-1R; 32 pg/mL IL-1β, 50% dialyzed NPH CSF supplemented with 65 pM, FIG. 5B): significantly less IL-1R signaling
- inhibition of IL-1R signaling in dialyzed CSF (human IL-1R; CSF dialyzed against DMEM/F12, 100 Dalton cut off membrane, FIG. 4D): restored anakinra-mediated inhibition
- blockade of IL-1β-induced IL-1R signaling (SEAP) (human IL-1R; HEK-Blue IL1R cells, co-treatment with IL-1β, FIG. 2B): competitively blocked
Substance: anakinra: recombinantly-produced human IL-1RA
- inhibition of IL-1R signaling in undialyzed CSF (human IL-1R; media containing 50% control CSF or artificial CSF, compared to complete media, FIGS. 4A-4C): did not show inhibition of IL-1R signaling
- CSF level of IL-1RA following treatment ([1]; FIRES patient CSF): further increased
- serum level of IL-1RA following treatment ([1]; FIRES patient serum): further increased
- clinical response of seizure disorder (children with FIRES): some children with FIRES respond

Source: patent publication US12216128B2, “Methods for guiding therapy decisions in seizure disorders” (Mayo Foundation for Medical Education and Research, priority 2018, dated 2025)
